A short description of data set [1]: Pharmacokinetics in CD-1 mouse, I.V. or S.C. 1 mg/kg, plasma concentration by LC-MS.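 On all read-outs here: peptide levels in plasma quantified by LC-MS across multiple sampling times.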 The note with it: individual animals; for AUC(0-inf): AUCINF_pred; for MRT inf / MRT last: mouse, in vivo; for MRT inf: MRTINF_pred; for MRT last: MRTlast.
Procedure: The peptide plasma concentration at various time points was determined using LC-MS.
In a further data set the target is T1, human GIPR (Homo sapiens, UniProt P48546).
T1 construct: expressed in transfected cells; host or cells: HEK293 (CRE-HEK293, HEK293-GIPR-CRE)
T1 sequence (P48546 22-466): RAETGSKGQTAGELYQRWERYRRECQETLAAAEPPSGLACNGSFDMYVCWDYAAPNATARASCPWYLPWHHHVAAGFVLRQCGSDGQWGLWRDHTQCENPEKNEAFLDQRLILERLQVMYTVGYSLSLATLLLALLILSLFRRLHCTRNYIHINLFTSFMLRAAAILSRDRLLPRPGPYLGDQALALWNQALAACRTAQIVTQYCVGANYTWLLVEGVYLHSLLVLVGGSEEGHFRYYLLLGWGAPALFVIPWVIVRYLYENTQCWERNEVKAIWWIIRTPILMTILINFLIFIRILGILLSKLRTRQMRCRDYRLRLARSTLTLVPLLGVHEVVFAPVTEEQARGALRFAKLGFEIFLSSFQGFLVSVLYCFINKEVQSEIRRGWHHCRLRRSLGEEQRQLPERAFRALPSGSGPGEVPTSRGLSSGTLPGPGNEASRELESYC
The data set can be described thus: In vitro receptor activation reporter assay (CRE-Luc, HEK293-GIPR-CRE cells; receptor-mediated cAMP synthesis). The conditions noted are these: unnumbered table. It is filed as cell-based. (In general: Reporter assays use an easily measured gene product as a stand-in for the process of interest.)

Where [2] appears, read: Table 15, I.V. 1 mg/kg, 1 mg/kg.
[3] abbreviates: iv, 1 mg/kg, Table 15, I.V. 1 mg/kg.
Setting [4] is: average of runs, read-out: EC50 GIPR average.

Molecules are shown by their SMILES. “And” between values parts separate entries of the source, which are not always exact repeats. Identical values can stand only once. Like-named read-outs stand apart in the source and are kept apart here. Numbered stars: 1 amine (or outer) side, 2 acyl side, 3 side chain; on linkers, the order of the positions; unused ones are H or OH. Bridge positions count the residues as written; N and C are the ends. Square brackets hold non-standard residues; d marks the D form. Peptide text beside a SMILES is read from it. X2 = O=C(O)CCCCCCCCCCCCCCCCCCC(=O)N[C@@H](CCCCNC(=O)CCOCCOCCNC(=O)CCOCCOCCNC(=O)CCC(=O)N(CCNC(=O)C[*:1])CCNC(=O)C[*:2])C(=O)O; Aib = CC(C)(N)C(=O)O

Procedure for human GIPR: HEK293 cells were infected with lentivirus encoding firefly luciferase gene under the control of cAMP responsive element (CRE) promoter (Qiagen, The Netherlands) and then were selected using 1 μg mL^−1 puromycin (Life Technologies, Carlsbad) for 1 week. The surviving cells (referred to as CRE-HEK293) were expanded and then transfected with a G418 selective mammalian expression plasmid encoding human GLP-1R or GIPR. In brief, GLP-1R or GIPR plasmid was transfected into CRE-HEK293 cells using Lipofectamine 2000 and selected with 400 μg mL^−1 Geneticin (Life Technologies, Carlsbad, CA). Single colony stable cell line overexpressing CRE-luciferase and GLP-1R or GIPR (HEK293-GLP-1R-CRE or HEK293-GIPR-CRE) was then established for in vitro activity assay.
The EC50 of each peptide was determined using GraphPad Prism 6 software (GraphPad, San Diego, CA).

With `CC[C@H](C)[C@H](NC(=O)[C@H](CC(C)C)NC(=O)[C@H](Cc1c[nH]c2ccccc12)NC(=O)[C@H](CC(N)=O)NC(=O)[C@@H](NC(=O)[C@H](Cc1ccccc1)NC(=O)[C@@H]1CSCC(=O)NCCN(C(=O)CCC(=O)NCCOCCOCCC(=O)NCCOCCOCCC(=O)NCCCC[C@H](NC(=O)CCCCCCCCCCCCCCCCC(=O)O)C(=O)O)CCNC(=O)CSC[C@H](NC(=O)[C@H](Cc2ccc(O)cc2)NC(=O)[C@@H](NC(=O)[C@H](CO)NC(=O)[C@H](Cc2ccc(O)cc2)NC(=O)[C@H](CC(=O)O)NC(=O)[C@H](CO)NC(=O)[C@@H](NC(=O)[C@H](Cc2ccccc2)NC(=O)[C@@H](NC(=O)CNC(=O)[C@H](CCC(=O)O)NC(=O)C(C)(C)NC(=O)[C@@H](N)Cc2ccc(O)cc2)[C@@H](C)O)[C@@H](C)O)[C@@H](C)CC)C(=O)N[C@@H](CC(=O)O)C(=O)N[C@@H](CCCCN)C(=O)N[C@@H](CCC(N)=O)C(=O)N[C@@H](C)C(=O)N[C@@H](C)C(=O)NC(C)(C)C(=O)N1)C(C)C)C(=O)N[C@@H](C)C(=O)NCC(=O)NCC(=O)N1CCC[C@H]1C(=O)N[C@@H](CO)C(=O)N[C@@H](CO)C(=O)NCC(=O)N[C@@H](C)C(=O)N1CCC[C@H]1C(=O)N1CCC[C@H]1C(=O)N1CCC[C@H]1C(=O)N[C@@H](CO)C(N)=O` [mCMZ370, YAibEGT-FTSDY-SIYXD-KQAAAib-XFVNW-LIAGG-PSSGA-PPPS-NH2 (where each X is C) (SEQ ID NO: 52)], the AUC in data set [1] (CD-1, mouse, plasma, iv, 1 mg/kg, AUC0_24, Table 15, I.V. 1 mg/kg) stood at 121000 ng·h/mL. Also, the AUC(0-t) in data set [1] (CD-1, mouse, plasma, iv, 1 mg/kg, AUC last, Table 15, I.V. 1 mg/kg) was found to be 148000 ng·h/mL. For the same molecule, in data set [1] (CD-1, mouse, plasma, iv, 1 mg/kg, Table 15, I.V. 1 mg/kg), the AUC(0-inf) came to 149000 ng·h/mL. For the same molecule, in data set [1] (CD-1, mouse, plasma, iv, 1 mg/kg, C0, Table 15, I.V. 1 mg/kg), the C0 was found to be 15200 ng/mL. The same molecule registered a Cmax in data set [1] (CD-1, mouse, plasma, iv, 1 mg/kg, Cmax, Table 15, I.V. 1 mg/kg) of 14600 ng/mL. Also, the time of peak concentration (Tmax) in data set [1] (CD-1, mouse, plasma, iv, 1 mg/kg, Tmax, Table 15, I.V. 1 mg/kg) came to 0.08 h. For the same molecule, the Vd in data set [1] (CD-1, mouse, plasma, iv, 1 mg/kg, Vss_pred, Table 15, I.V. 1 mg/kg) stood at 0.098 L/kg. The same molecule returned a Vd in data set [1] (CD-1, mouse, plasma, iv, 1 mg/kg, Vz_pred, Table 15, I.V. 1 mg/kg) of 0.085 L/kg. The same molecule had a half-life in data set [1] (CD-1, mouse, plasma, iv, 1 mg/kg, t1/2, Table 15, I.V. 1 mg/kg) of 8.82 h. Also, in data set [1] (CD-1, mouse, plasma, sc, 1 mg/kg, AUC0_24, CD-1 mouse, S.C.), the exposure (AUC) was found to be 41900 ng·h/mL. Moreover, in data set [1] (CD-1, mouse, plasma, sc, 1 mg/kg, S.C.), the AUC(0-inf) is 53500 ng·h/mL. The molecule also came in with an AUC in data set [1] (CD-1, mouse, plasma, sc, 1 mg/kg, AUCall, S.C.) of 53300 ng·h/mL. In addition, the apparent clearance (CL/F) in data set [1] (CD-1, mouse, plasma, sc, 1 mg/kg, Cl_Fpred, S.C.) came out at 0.24 mL/min/kg. Further, the highest level in data set [1] (CD-1, mouse, plasma, sc, 1 mg/kg, Cmax, S.C.) (Cmax) was 2460 ng/mL. The half-life in data set [1] (CD-1, mouse, plasma, sc, 1 mg/kg, t1/2, CD-1 mouse, S.C.) was 7.5 h. Moreover, in data set [1] (CD-1 mouse, S.C., 1 mg/kg), the AUC0_24 was 44691 ng·h/mL and 63474 ng·h/mL; the AUCINF_pred was 68240 ng·h/mL and 80676 ng·h/mL; the “AUC_% Extrap_pred” value is 0.26% and 0.31% and 0.19%; the AUCall was 68029 ng·h/mL and 80522 ng·h/mL. Moreover, in data set [1] (CD-1 mouse, S.C., 1 mg/kg), the “AUMC_% Extrap_pred” value is 1.32% and 1.23% and 0.99%; the Cl_Fpred turned out to be 0.06 mL/min/kg; the Cmax is 2221 ng/mL and 3993 ng/mL; the MRTINF_pred is 20.64 h and 15.82 h. Also, in data set [1] (CD-1 mouse, S.C., 1 mg/kg), the MRTlast was 20.45 h and 15.69 h; the Tlast turned out to be 72 h; the time of peak concentration (Tmax) is 7 h and 24 h and 3 h; the V_F_pred was 0.2 L/kg and 0.15 L/kg and 0.13 L/kg. In addition, the t1/2 in data set [1] (CD-1 mouse, S.C., 1 mg/kg) was 7.06 h and 7.05 h. The Tlast in data set [1] (Table 15, I.V. 1 mg/kg) was found to be 72 h. Further, in data set [1] (setting [2]), the AUC0_24 is 107856 ng·h/mL and 85158 ng·h/mL; the AUC last is 127615 ng·h/mL and 102411 ng·h/mL; the AUCINF_pred was 128099 ng·h/mL and 103033 ng·h/mL; the “AUC_% Extrap_pred” value is 0.39% and 0.38% and 0.6%. For the same molecule, in data set [1] (setting [2]), the “AUMC_% Extrap_pred” value was 2.24% and 2.36% and 3.79%; the C0 is 8380 ng/mL and 10006 ng/mL; the Cmax was 8230 ng/mL and 9829 ng/mL; the MRTINF_pred is 13.56 h and 13.74 h. Also, in data set [1] (setting [2]), the MRTlast is 13.29 h and 13.3 h; the Vss_pred is 0.106 L/kg and 0.133 L/kg; the Vz_pred is 0.099 L/kg and 0.138 L/kg; the t1/2 is 9.87 h. In data set [1] (setting [3]), this molecule displayed an MRT inf of 14.6 h and an MRT last of 14.3 h. For the same molecule, in data set [1] (sc, 1 mg/kg, CD-1 mouse, S.C.), the MRT inf was 16.2 h and the mean residence time MRT last stood at 16.1 h.

Regarding `CC[C@H](C)[C@H](NC(=O)[C@H](CC(C)C)NC(=O)[C@H](Cc1c[nH]c2ccccc12)NC(=O)[C@H](CC(N)=O)NC(=O)[C@@H](NC(=O)[C@H](Cc1ccccc1)NC(=O)[C@@H]1CSCC(=O)NCCN(C(=O)CCC(=O)NCCOCCOCCC(=O)NCCOCCOCCC(=O)NCCCC[C@H](NC(=O)CCCCCCCCCCCCCCCCCCC(=O)O)C(=O)O)CCNC(=O)CSC[C@H](NC(=O)[C@H](Cc2ccc(O)cc2)NC(=O)[C@@H](NC(=O)[C@H](CO)NC(=O)[C@H](Cc2ccc(O)cc2)NC(=O)[C@H](CC(=O)O)NC(=O)[C@H](CO)NC(=O)[C@@H](NC(=O)[C@H](Cc2ccc(O)cc2)NC(=O)[C@@H](NC(=O)CNC(=O)[C@H](CCC(=O)O)NC(=O)C(C)(C)NC(=O)[C@@H](N)Cc2ccc(O)cc2)[C@@H](C)O)[C@@H](C)O)[C@@H](C)CC)C(=O)N[C@@H](CC(=O)O)C(=O)N[C@@H](CCCCN)C(=O)N[C@@H](CCC(N)=O)C(=O)N[C@@H](C)C(=O)N[C@@H](C)C(=O)NC(C)(C)C(=O)N1)C(C)C)C(=O)N[C@@H](C)C(=O)NCC(=O)NCC(=O)N1CCC[C@H]1C(=O)N[C@@H](CO)C(=O)N[C@@H](CO)C(=O)NCC(=O)N[C@@H](C)C(=O)N1CCC[C@H]1C(=O)N1CCC[C@H]1C(=O)N1CCC[C@H]1C(=O)N[C@@H](CO)C(N)=O` [6Y, 27I, C(14-21)-C20L5A, YAibEGT-YTSDY-SIYXD-KQAAAib-XFVNW-LIAGG-PSSGA-PPPS-NH2 (where each X is C) (SEQ ID NO: 58)] (H-Y[Aib]EGTYTSDYSIYCDKQAA[Aib]CFVNWLIAGGPSSGAPPPS-NH2; linker 14-21 via X2), the EC50 at human GIPR (setting [4]) was determined as 0.56 nM; on human GIPR (run 03/26, read-out: EC50 GIPR 03/26), 0.6 nM.

Regarding `CC[C@H](C)[C@H](NC(=O)[C@H](CC(C)C)NC(=O)[C@H](Cc1c[nH]c2ccccc12)NC(=O)[C@@H]1CSCC(=O)NCCN(C(=O)CCC(=O)NCCOCCOCCC(=O)NCCOCCOCCC(=O)NCCCC[C@H](NC(=O)CCCCCCCCCCCCCCCCCCC(=O)O)C(=O)O)CCNC(=O)CSC[C@H](NC(=O)[C@H](CCCCN)NC(=O)[C@H](CC(=O)O)NC(=O)[C@H](CC(C)C)NC(=O)[C@H](Cc2ccc(O)cc2)NC(=O)[C@@H](NC(=O)[C@H](CO)NC(=O)[C@H](Cc2ccc(O)cc2)NC(=O)[C@H](CC(=O)O)NC(=O)[C@H](CO)NC(=O)[C@@H](NC(=O)[C@H](Cc2ccc(O)cc2)NC(=O)[C@@H](NC(=O)CNC(=O)[C@H](CCC(=O)O)NC(=O)C(C)(C)NC(=O)[C@@H](N)Cc2ccc(O)cc2)[C@@H](C)O)[C@@H](C)O)[C@@H](C)CC)C(=O)N[C@@H](C)C(=O)N[C@@H](C)C(=O)NC(C)(C)C(=O)N[C@@H](CCC(=O)O)C(=O)N[C@@H](Cc2ccccc2)C(=O)N[C@@H](C(C)C)C(=O)N1)C(=O)N[C@@H](C)C(=O)NCC(=O)NCC(=O)N1CCC[C@H]1C(=O)N[C@@H](CO)C(=O)N[C@@H](CO)C(=O)NCC(=O)N[C@@H](C)C(=O)N1CCC[C@H]1C(=O)N1CCC[C@H]1C(=O)N1CCC[C@H]1C(=O)N[C@@H](CO)C(N)=O` [6Y, 27I, C(17-24)-C20L5A, YAibEGT-YTSDY-SIYLD-KXAAAib-EFVXW-LIAGG-PSSGA-PPPS-NH2 (where each X is C) (SEQ ID NO: 59)] (H-Y[Aib]EGTYTSDYSIYLDKCAA[Aib]EFVCWLIAGGPSSGAPPPS-NH2; linker 17-24 via X2), the EC50 on human GIPR (setting [4]) worked out at 0.26 nM.

Usually AUC stands for concentration integrated over time. The AUC(0-t) is the area under the concentration-time curve up to a stated or last time point. Low values mean low exposure, high ones high exposure. What is called AUC(0-inf) is the area under the concentration-time curve extrapolated to infinity. The Cmax is the peak of the concentration-time curve. By Tmax is commonly meant the time at which the peak concentration occurs. A word on the half-life: it is how long it takes for the measured level to halve. A higher half-life goes with slow decline. As usually defined, the CL/F is clearance divided by bioavailability, as obtained after extravascular dosing. By MRT inf is commonly meant the average time that molecules of a dose stay in the body. By MRT last is commonly meant a mean duration of stay, worked out from the concentration-time curve.

These data come from patent US12329823B2 (The Scripps Research Institute, priority 2021, dated 2025).
